Columns and labels:
[1] = molecular target: T1, human MET (c-Met, hepatocyte growth factor receptor), endogenous on human cell lines (human, UniProt P08581 25-1390); experiment: cell-based or functional assay
[2] = molecular target: T1, human MET (c-Met, hepatocyte growth …); experiment: cell-based or functional assay; remark: listed apart in the source
[3] = molecular target: T1, human MET (c-Met, hepatocyte growth …); experiment: flow cytometry, A549 cells (endogenous MET), antibody 10 ug/ml
Method: (§1) After one additional wash with FACS buffer, samples were fixed with Cytofix (BD Biosciences, #554655), filtered with FACS buffer and run on an iQue flow cytometer (Intelicyte). Mean fluorescence intensity (MFI) data was determined using FlowJo software (FlowJo LLC).

[4] = molecular target: T1, human MET (c-Met, hepatocyte growth …); experiment: flow cytometry, EBC-1 cells (endogenous MET), antibody 10 ug/ml
Method: as §1

[5] = molecular target: T1, human MET (c-Met, hepatocyte growth …); experiment: flow cytometry, SNU-5 cells (endogenous MET), antibody 10 ug/ml
Method: as §1

[6] = molecular target: T1, human MET (c-Met, hepatocyte growth …); experiment: flow cytometry, Hs746t cells (endogenous MET), antibody 10 ug/ml
Method: as §1

[7] = molecular target: T1, human MET (c-Met, hepatocyte growth …); experiment: flow cytometry, MKN-45 cells (endogenous MET), antibody 10 ug/ml
Method: as §1

[8] = molecular target: T1, human MET (c-Met, hepatocyte growth …); experiment: flow cytometry, U87MG cells (endogenous MET, low), antibody 10 ug/ml
Method: as §1

[9] = molecular target: T1, human MET (c-Met, hepatocyte growth …); experiment: flow cytometry, MDA-MB-231 cells (endogenous MET, low), antibody 10 ug/ml
Method: as §1

T1 sequence (P08581 25-1390 limits assumed, form in doubt): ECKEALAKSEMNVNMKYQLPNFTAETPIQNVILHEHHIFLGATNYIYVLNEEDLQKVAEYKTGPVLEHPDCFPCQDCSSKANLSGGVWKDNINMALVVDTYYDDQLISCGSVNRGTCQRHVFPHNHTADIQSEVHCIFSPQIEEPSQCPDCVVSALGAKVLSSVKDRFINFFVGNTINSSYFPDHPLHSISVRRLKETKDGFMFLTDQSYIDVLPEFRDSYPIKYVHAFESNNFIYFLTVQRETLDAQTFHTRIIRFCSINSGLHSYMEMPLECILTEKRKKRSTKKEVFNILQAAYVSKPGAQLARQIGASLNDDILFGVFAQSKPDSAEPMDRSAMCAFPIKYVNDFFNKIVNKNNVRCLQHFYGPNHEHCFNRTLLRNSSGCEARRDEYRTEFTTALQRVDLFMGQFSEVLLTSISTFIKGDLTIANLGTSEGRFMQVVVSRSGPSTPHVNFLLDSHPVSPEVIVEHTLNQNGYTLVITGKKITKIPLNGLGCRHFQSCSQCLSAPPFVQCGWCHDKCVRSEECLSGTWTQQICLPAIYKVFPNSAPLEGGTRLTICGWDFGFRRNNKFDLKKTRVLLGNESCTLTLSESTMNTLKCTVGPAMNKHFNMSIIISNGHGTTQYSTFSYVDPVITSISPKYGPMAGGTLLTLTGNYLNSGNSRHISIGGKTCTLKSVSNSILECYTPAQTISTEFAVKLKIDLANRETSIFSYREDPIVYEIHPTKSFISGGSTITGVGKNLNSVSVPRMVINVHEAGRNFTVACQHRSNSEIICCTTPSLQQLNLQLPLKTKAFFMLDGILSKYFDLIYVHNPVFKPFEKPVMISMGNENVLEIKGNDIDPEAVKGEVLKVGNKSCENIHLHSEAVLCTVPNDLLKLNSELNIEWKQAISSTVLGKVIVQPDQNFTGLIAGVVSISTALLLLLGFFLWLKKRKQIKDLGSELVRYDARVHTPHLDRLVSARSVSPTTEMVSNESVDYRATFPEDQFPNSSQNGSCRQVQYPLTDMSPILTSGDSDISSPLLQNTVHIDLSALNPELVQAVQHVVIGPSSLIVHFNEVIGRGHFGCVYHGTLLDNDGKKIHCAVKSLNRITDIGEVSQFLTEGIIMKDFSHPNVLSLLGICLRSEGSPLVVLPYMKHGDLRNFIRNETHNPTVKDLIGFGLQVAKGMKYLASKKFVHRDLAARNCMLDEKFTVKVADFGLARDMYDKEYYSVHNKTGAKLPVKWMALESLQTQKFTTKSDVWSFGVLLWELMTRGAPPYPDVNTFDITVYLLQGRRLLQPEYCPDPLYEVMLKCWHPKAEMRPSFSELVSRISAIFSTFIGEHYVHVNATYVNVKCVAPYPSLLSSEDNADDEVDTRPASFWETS

Binder | % Inhibition (HEK293/SRE-Luc Blocking Activity, 1 h mAb pre-bind) [1] | EC50 (Ligand (HGF)-Independent HEK293/SRE-Luc Activation) [1] | Fold Response (Ligand (HGF)-Independent HEK293/SRE-Luc Activation) [1] | IC50 (HEK293/SRE-Luc Blocking Activity, 1 h mAb pre-bind) [1] | further results
H4H13290P2 (antibody, human IgG4, V domains shown) VH: QVQLQESGPGLVKPSETLSLTCTVSGDSISSYYWTWIRQPPGKGLEWIGYIFYRGGTTYNPSLKSRVTISVDTSKNQFSLKLRSVTAADTAVYYCARGDDLLVVTSVYWYIDLWGRGTLVTVSS VL: not shown | 56% | < 0.002 nM | 9.8 fold | < 0.002 nM | –
H4H13291P2 (antibody, human IgG4, V domains shown) VH: QVQLVESGGGVVQPGGSLRLSCAASGFTFSGYGMHWVRQAPGKGLEWMAVIWYDGSNDYYPDSVKGRFTISRDNSKNTLYLQMNSLRVEDTAVYYCARDAWDLLRSFDYWGQGTLVTVSS VL: not shown | 61% | 0.39 nM | 2.7 fold | 0.13 nM | –
H4H13299P2 (antibody, human IgG4, V domains shown) VH: EVQLVESGGGLVQPGGSLRLSCAASGFIFSNYEMNWVRQAPGKGLEWISYITSSGNMKYYADSVKGRFTISRDNDKNSLYLQMSSLRVEDTAVYYCVRGGRFLEWLTYYVMVVWGQGTTVTVSS VL: not shown | 51% | 0.0037 nM | 14.4 fold | – | –
H4H13295P2 (antibody, human IgG4, V domains shown) VH: QVQLVESGGGVVQPGRSLRVSCVVSGFTFSSFGMHWVRQAPDKGLEWVAVIWYDGSNDYYSDSVKGRFTISRDNSKNTLFLQMNRLRAEDTAVYYCARANNWNRFDAFDLWGQGTMVTVSS VL: not shown | 70% | 0.3 nM | 2.8 fold | 0.055 nM | –
H4H13311P2 (antibody, human IgG4, V domains shown) VH: QVQLVESGGGVVQPGRSLRLSCAASGFTFSSYAMHWVRQAPGRGLEWVAVIWHDGDVEYYVDSVKDRFTISRDNSKSTLYLQMNSLRAEDTALYYCAREAWDLLRPFDYWGQGTLVTVSS VL: not shown | 62% | 0.3 nM | 5.2 fold | 0.035 nM | –
H4H14639D-Maytansinoid A (bispecific antibody, human IgG4, V domains shown, conjugated with SMCC-DM1 diastereomer (Maytansinoid A); residues and chain of attachment not stated) VH 1: EVQLVESGGGLVQPGTSLRLSCAASGFTFDDYAMHWVRQAPGKGLEWVSGITWNSYNIDYADSVKGRFTISRDNAKNSLYLQMNSLRAEDTALYYCAKDDDYSNYVYFDYWGQGTLVTVSS VH 2: EVQLVESGGGLVQPGGSLRLSCAASGFIVTTNYMTWLRQAPGKGLEWVSLIYSSGHTYYADSVKGRFTISRHNSKNTLYLQMDSLRAEDTAVYYCASAFAADVFDIWGQGTMVTVSS VL: not shown | – | – | – | – | IC50 (nM), 3-day in vitro cytotoxicity assay, MDA-MB-231 cells (low MET) [2]: > 100 nM; IC50 (nM), 3-day in vitro cytotoxicity assay, SNU-5 cells [2]: 0.4 nM; IC50 (nM), 3-day in vitro cytotoxicity assay, U87MG cells (low MET) [2]: 100 nM
H4H14634D (bispecific antibody, human IgG4, V domains shown) VH 1: QVQLQESGPGLVKPSETLSLTCTVSGDSISSYYWTWIRQPPGKGLEWIGYIFYRGGTTYNPSLKSRVTISVDTSKNQFSLKLRSVTAADTAVYYCARGDDLLVVTSVYWYIDLWGRGTLVTVSS VH 2: EVQLVESGGGLVQPGGSLRLSCAASGFIVTTNYMTWLRQAPGKGLEWVSLIYSSGHTYYADSVKGRFTISRHNSKNTLYLQMDSLRAEDTAVYYCASAFAADVFDIWGQGTMVTVSS VL: not shown | 85% | 0.09 nM | 3.4 fold | 0.0097 nM | –
H4H14640D (bispecific antibody, human IgG4, V domains shown) VH 1: QVQLVQSGTEVKEPGASVKVSCKASGYSFTTYGISWLRQAPGQGLEWMGWISTYNGDTISAQMLQDRVTLTADTSTRTAYMELRSLRSDDTAVYYCARGHEYDSLVYSYWGQGTLVTVSS VH 2: EVQLVESGGGLVQPGGSLRLSCAASGFIVTTNYMTWLRQAPGKGLEWVSLIYSSGHTYYADSVKGRFTISRHNSKNTLYLQMDSLRAEDTAVYYCASAFAADVFDIWGQGTMVTVSS VL: not shown | 89% | 6.8 nM | 2.5 fold | 0.52 nM | –
H4H13306P2 (antibody, human IgG4, V domains shown) VH: EVQLVESGGGLVQPGTSLRLSCAASGFTFDDYAMHWVRQAPGKGLEWVSGITWNSYNIDYADSVKGRFTISRDNAKNSLYLQMNSLRAEDTALYYCAKDDDYSNYVYFDYWGQGTLVTVSS VL: not shown | – | 0.013 nM | – | – | –
H4H14635D (bispecific antibody, human IgG4, V domains shown, human IgG4 Fc; also called No. 42; MET×MET bispecific antibody) VH 1: QVQLVESGGGVVQPGRSLRVSCVVSGFTFSSFGMHWVRQAPDKGLEWVAVIWYDGSNDYYSDSVKGRFTISRDNSKNTLFLQMNRLRAEDTAVYYCARANNWNRFDAFDLWGQGTMVTVSS VH 2: EVQLVESGGGLVQPGGSLRLSCAASGFIVTTNYMTWLRQAPGKGLEWVSLIYSSGHTYYADSVKGRFTISRHNSKNTLYLQMDSLRAEDTAVYYCASAFAADVFDIWGQGTMVTVSS VL: not shown | 85% | 1.4 nM | 2.2 fold | 0.19 nM | FACS Binding (MFI Fold Above Isotype Control) [3]: 12 fold; FACS Binding (MFI Fold Above Isotype Control) [4]: 263 fold; FACS Binding (MFI Fold Above Isotype Control) [5]: 477 fold; FACS Binding (MFI Fold Above Isotype Control) [6]: 39 fold; FACS Binding (MFI Fold Above Isotype Control) [7]: 183 fold; FACS Binding (MFI Fold Above Isotype Control) [8]: 18 fold; FACS Binding (MFI Fold Above Isotype Control) [9]: 11 fold
H4H13318P2 (antibody, human IgG4, V domains shown) VH: QVQLVESGGGVVQPGRSLRLSCVASGFSFSNFGMHWVRQAPGKGLEWVAIIWYDGSNKYYSDSVKGRFTISRDNSKNTLYLQMNSLRVDDTAVYYCARFDRWKFDAFDIWGQGTMVTVSS VL: not shown | 77% | – | 3.1 fold | 0.1 nM | –
H4H13309P2 (antibody, human IgG4, V domains shown) VH: QVQLVQSGTEVKEPGASVKVSCKASGYSFTTYGISWLRQAPGQGLEWMGWISTYNGDTISAQMLQDRVTLTADTSTRTAYMELRSLRSDDTAVYYCARGHEYDSLVYSYWGQGTLVTVSS VL: not shown | 77% | 0.39 nM | 9.2 fold | 0.2 nM | –
H4H13319P2 (antibody, human IgG4, V domains shown) VH: QVQLVESGGGVVQPGRSLRLSCAASGFTFSSFAMHWVRQAPGKGLEWVAVIWYDGSNDYYAASVKGRFTISRDNSKNTLYLEMNRLRAEDTAVYHCARDNWNYWGGMDVWGQGTTVTVSS VL: not shown | 67% | 0.18 nM | 4.8 fold | 0.052 nM | –
H4H13300P2 (antibody, human IgG4, V domains shown) VH: QVQLVESGGGVVQPGRSLRLSCAVSGFTFSSYGMHWVRQAPGKGLEWVANIWYDGTNDYYPYSVKGRFTISRDNSQNTLYLQMNSLRAEDTAVYYCAREDFINYRSFDYWGQGTLVTVSS VL: not shown | 69% | 0.48 nM | 2.8 fold | 0.12 nM | –
H4H13331P2 (antibody, human IgG4, V domains shown) VH: QVQLQESGPGLVKSSETLSLTCTVSGGSIRNFYWSWLRQPPGKGLEWIGHINYNGGTDYNPSLKSRVTISVDTSKNQFSLNLNSVTAADTAVYYCARQRFYGMDVWGPGTTVTVSS VL: not shown | 75% | 0.0023 nM | 7.1 fold | < 0.01 nM | –

Source: US20180134794A1 (Regeneron, published 2018)
